Experimental data reported in PMC13013135, “[^99mTc]Tc-PSMA-HSG for PSMA-targeted Hybrid Surgical Guidance: a new addition to the PSMA-I&S/I&T family” (European Journal of Nuclear Medicine and Molecular Imaging, 2025).

Assays:
[1] = test system: PSMA expressing LNCaP cells; assay: Dual tracer internalization assay; type: cell-based, human; conditions: 60 min, 37 °C, 0.5 nM tracer, normalized to ([^125I]IBA)KuE
Method: Competitive binding experiments (IC50) were carried out in accordance with an established protocol using PSMA-expressing LNCaP cells and ([^125I]I-BA)KuE as standard radioligand. […] Please see the Supplementary Material for experimental details. […] The supernatant was removed, cells were washed with assay medium, and an acid wash (50 mM NaOAc in saline, pH 4.5) was performed to remove membrane-associated activity. Cells were then lysed using 1N NaOH, and internalized activity was quantified using a γ-counter. […] Tocris Bioscience, Bristol, UK) and normalized to the specific internalization observed for the radioiodinated reference compound in the same experiment. Data represent means ± SD (n=3) from three separate determinations.

in vivo = conditions: mouse, in vivo
Method: The biodistribution of [^99mTc]Tc-PSMA-HSG and of the reference compound [^99mTc]Tc-PSMA-I&S was investigated in LNCaP xenograft bearing NSG mice (see supplemental information).
Mice were injected intravenously with the respective ^99mTc-labeled tracer (24–34 MBq (fixed peptide dose of 1 nmol/mouse) or 3.7–7.6 MBq (fixed peptide doses of 0.1 nmol/mouse), respectively) and were sacrificed at 2 h (1 nmol-cohort) or 6 h p.i. (0.1 nmol-cohort), respectively. The organs of interest were dissected, and the activity concentration in weighed tissue samples was quantified using an AMG Automatic Gamma Counter (Hidex, Turku, Finland). Biodistribution data are given in %iD/g and represent means ± SD (groups of n = 5 animals). Statistical analysis (Multiple unpaired t-test) of biodistribution data and tumor/organ ratios was performed using GraphPad Prism (Boston, USA).
To induce LNCaP tumor growth, a suspension of LNCaP cells (approx. 5 x 10^6 cells/mouse) in 200 μl of a 1:1 mixture of serum-free DMEM and Matrigel (BD Biosciences) was injected subcutaneously into the right shoulder of male NOD scid gamma (NSG) mice (6-8 weeks, in-house breeding, Dpt. of Oncology, University of Lausanne). After approximately 9 weeks, tumor size reached 4-8 mm in diameter and the mice were used for the in vivo studies.

**Q.** What does the source list for C[N+]1=C(/C=C/C=C/C=C2/N(CCCCCC(=O)NCCCC[C@@H](NC(=O)[C@@H](CO)NC(=O)[C@@H](CO)NC(=O)[C@@H](CO)NC(=O)CS)C(=O)N[C@H](Cc3ccc(O)cc3)C(=O)N[C@H](Cc3ccc4ccccc4c3)C(=O)N[C@H](CCCCNC(=O)CCCCCCC(=O)NCCCC[C@H](NC(=O)N[C@@H](CCC(=O)O)C(=O)O)C(=O)O)C(=O)O)c3ccc(S(=O)(=O)[O-])cc3C2(C)C)C(C)(C)c2cc(S(=O)(=O)O)ccc21 [[^99mTc]Tc-PSMA-HSG, metal not drawn]?
**A.** internalization [% of reference] [1]: 14 ± 1 % of reference; tissue uptake at 6 h (in vivo; male, NOD scid gamma (NSG), iv, 0.1 nmol/mouse, total radioactivity, biodistribution, liver): 2.5 ± 0.4 %ID/g; tissue uptake at 6 h (in vivo; male, NOD scid gamma (NSG), iv, 0.1 nmol/mouse, total radioactivity, biodistribution, lung): 2.5 ± 0.5 %ID/g; tissue uptake at 6 h (in vivo; male, NOD scid gamma (NSG), iv, 0.1 nmol/mouse, total radioactivity, biodistribution, pancreas): 0.8 ± 0.3 %ID/g; tissue uptake at 6 h (in vivo; male, NOD scid gamma (NSG), iv, 0.1 nmol/mouse, total radioactivity, biodistribution, spleen): 9.7 ± 3.8 %ID/g; tissue uptake at 6 h (in vivo; male, NOD scid gamma (NSG), iv, 0.1 nmol/mouse, total radioactivity, biodistribution, stomach): 1.1 ± 0.2 %ID/g; tissue uptake at 2 h (in vivo; male, NOD scid gamma (NSG), iv, 1 nmol/mouse, total radioactivity, biodistribution, liver): 3.3 ± 0.3 %ID/g; tissue uptake at 2 h (in vivo; male, NOD scid gamma (NSG), iv, 1 nmol/mouse, total radioactivity, biodistribution, lung): 2.8 ± 0.3 %ID/g; tissue uptake at 2 h (in vivo; male, NOD scid gamma (NSG), iv, 1 nmol/mouse, total radioactivity, biodistribution, pancreas): 0.8 ± 0.1 %ID/g; tissue uptake at 2 h (in vivo; male, NOD scid gamma (NSG), iv, 1 nmol/mouse, total radioactivity, biodistribution, spleen): 5.2 ± 1.9 %ID/g; tissue uptake at 2 h (in vivo; male, NOD scid gamma (NSG), iv, 1 nmol/mouse, total radioactivity, biodistribution, stomach): 1.6 ± 0.1 %ID/g; tissue to tissue ratio at 6 h (in vivo; male, NSG, iv, 0.1 nmol/mouse, total radioactivity): 0.12 ± 0.02; tissue uptake at 6 h (in vivo; male, NSG, iv, 0.1 nmol/mouse, total radioactivity, biodistribution, LNCaP tumor): 19.8 ± 6.6 %ID/g; tissue uptake at 6 h (in vivo; male, NSG, iv, 0.1 nmol/mouse, total radioactivity, biodistribution, blood): 1.3 ± 0.3 %ID/g; tissue uptake at 6 h (in vivo; male, NSG, iv, 0.1 nmol/mouse, total radioactivity, biodistribution, heart): 0.7 ± 0.2 %ID/g; tissue uptake at 6 h (in vivo; male, NSG, iv, 0.1 nmol/mouse, total radioactivity, biodistribution, intestines): 1.3 ± 0.2 %ID/g; tissue uptake at 6 h (in vivo; male, NSG, iv, 0.1 nmol/mouse, total radioactivity, biodistribution, kidneys): 148 ± 17 %ID/g; tissue uptake at 6 h (in vivo; male, NSG, iv, 0.1 nmol/mouse, total radioactivity, biodistribution, muscle): 0.4 ± 0.06 %ID/g; tissue uptake at 6 h (in vivo; male, NSG, iv, 0.1 nmol/mouse, total radioactivity, biodistribution, salivary glands): 4 ± 1.2 %ID/g; tissue to tissue ratio at 2 h (in vivo; male, NSG, iv, 1 nmol/mouse, total radioactivity): 0.2 ± 0.03; tissue uptake at 2 h (in vivo; male, NSG, iv, 1 nmol/mouse, total radioactivity, biodistribution, LNCaP tumor): 12.1 ± 0.9 %ID/g; tissue uptake at 2 h (in vivo; male, NSG, iv, 1 nmol/mouse, total radioactivity, biodistribution, blood): 2.4 ± 0.3 %ID/g; tissue uptake at 2 h (in vivo; male, NSG, iv, 1 nmol/mouse, total radioactivity, biodistribution, heart): 1.3 ± 0.2 %ID/g; tissue uptake at 2 h (in vivo; male, NSG, iv, 1 nmol/mouse, total radioactivity, biodistribution, intestines): 1 ± 0.1 %ID/g; tissue uptake at 2 h (in vivo; male, NSG, iv, 1 nmol/mouse, total radioactivity, biodistribution, kidneys): 61.7 ± 7.2 %ID/g; tissue uptake at 2 h (in vivo; male, NSG, iv, 1 nmol/mouse, total radioactivity, biodistribution, muscle): 0.5 ± 0.04 %ID/g; tissue uptake at 2 h (in vivo; male, NSG, iv, 1 nmol/mouse, total radioactivity, biodistribution, salivary glands): 4.2 ± 0.5 %ID/g; tissue uptake at 6 h (in vivo; Tumor uptake in mice): 11.8 ± 1.5 %ID/g
